Measurements published in US20180155451A1 (published 2018).
Where a chain is given by its changes, count along the chain named. Names and notes keep the numbering of the source. Read-outs that look alike come from different tables or passages of the source.

B1: H240-Kn067/H240-Hl136/L73-k0 (antibody, human IgG1, kappa)
heavy 1: QDQLVQSGAEVKKPGASVKVSCKASGFNIKDTYIQWVRQAPGQGLEWMGRIDPLRKQTKYREKFEGRVTITADTSTNTAYMELSSLRSEDTAVYYCVRSGREFDYWGQGTLVTVSSASTKGPSVFPLAPSSKSTSGGTAALGCLVKDYFPEPVTVSWNSGALTSGVHTFPAVLQSSGLYSLSSVVTVPSSSLGTQTYICNVNHKPSNTKVDKKVEPKSCDKTHTCPPCPAPEYYWGPSVFLFPPKPKDTLMISRTPEVTCVVVDVSDEDPEVKFNWYVDGVEVHNAKTKPREEQYNATYRVVSVLTVLHQDWLNGKEYKCKVSNKDLPAPIEKTISKAKGQPREPQVCTLPPSRDELTKNQVSLWCLVKGFYPSDIAVEWESNGQPENNYKTTPPVLDSDGSFFLYSKLTVDKSRWQQGNVFSCSVMHEALHNHYTQKSLSLSP
heavy 2: B1 heavy 1 with C348Y, D355C, W365S, L367A, Y406V
light: DIQMTQSPSSLSASVGDRVTITCRASQDIHKYIAWYQQKPGQAPRLLIQYTSTLQPGVPSRFSGSGSGTDYTFTISSLQPEDIATYYCLQYEQLRTFGGGTKVEIKRTVAAPSVFIFPPSDEQLKSGTASVVCLLNNFYPREAKVQWKVDNALQSGNSQESVTEQDSKDSTYSLSSTLTLSKADYEKHKVYACEVTHQGLSSPVTKSFNRGEC
notes: Anti-EREG IgG1 called homodimerized: both H chains (knob and hole) carry L234Y/L235Y/G236W/H268D/S298A/A327D; also called H240-Kn067/H240-HI136/L73-k0
B2: H240-FA021/H240-FB059/L73-k0 (antibody, human IgG1, kappa)
heavy 1: B1 heavy 1 with Q195K, I198T, D269E, D326A, C348Y, D355K, L357K, W365T, V396K, H434R
heavy 2: QDQLVQSGAEVKKPGASVKVSCKASGFNIKDTYIQWVRQAPGQGLEWMGRIDPLRKQTKYREKFEGRVTITADTSTNTAYMELSSLRSEDTAVYYCVRSGREFDYWGQGTLVTVSSASTKGPSVFPLAPSSKSTSGETAALGCLVEDYFPEPVTVSWNSGALTSGVHTFPAVLQSSGLYSLSSVVTVPSSSLGTQTYICNVNHKPSNTKVDKKVEPKSCDKTHTCPPCPAPELLGGPSVFLFPPKPKDTLMISRTPEVTCVVVDVSHEEPEVQFNWYVDGVEVHNAETKPREEQYNSTYRVVSVLTVLHQDWLNGKEYKCKVSNDALPMPIEETISKAKGQPREPQVYTLPPSREEMTKNQVSLTCLVKGFYPSDIAVEWESNGQPENNYKTTPPVLDSDGSFFLYSKLTVDKSRWQQGNVFSCSVMHEALHNHYTQESLSLSP
light: B1 light
notes: Heterodimerized anti-epiregulin IgG1 antibody
B3: H240-FA020/H240-FB059/L73-k0 (antibody, human IgG1, kappa)
heavy 1: B1 heavy 1 with Q195K, I198T, D269E, D326A, C348Y, D355K, L357K, W365T, H434R
heavy 2: B2 heavy 2
light: B1 light
notes: as for B2
B4: H240-Kn113/H240-Hl076/L73-k0 (antibody, human IgG1, kappa)
heavy 1: B1 heavy 1 with Y233E, Y234N, D269E, D326A
heavy 2: B2 heavy 2 with E137G, E146K, Q273K, E287K, E355C, M357L, T365S, L367A, Y406V, E438K
light: B1 light
notes: Heterodimerized anti-EREG IgG1: Kn113 is H240-Kn072 with Y234E and Y235N
B5: H240-Kn125/H240-Hl076/L73-k0 (antibody, human IgG1, kappa)
heavy 1: B1 heavy 1 with Y234Q, S238M, D269E, D326A
heavy 2: B2 heavy 2 with E137G, E146K, Q273K, E287K, E355C, M357L, T365S, L367A, Y406V, E438K
light: B1 light
notes: Heterodimerized anti-EREG IgG1: Kn125 is H240-Kn072 with Y235Q and S239M

Assays:
FcgRIIa R [1] = biological target: T1, FcgRIIa R (human, UniProt P12318 34-217); experiment: SPR (Biacore), antibody captured on chip, FcgR extracellular domain as analyte
T1 construct: extracellular domain; also called FcγRIIa R; FcγRIIa type R; not shown: His tag attached to the C terminus
T1 sequence (looked up): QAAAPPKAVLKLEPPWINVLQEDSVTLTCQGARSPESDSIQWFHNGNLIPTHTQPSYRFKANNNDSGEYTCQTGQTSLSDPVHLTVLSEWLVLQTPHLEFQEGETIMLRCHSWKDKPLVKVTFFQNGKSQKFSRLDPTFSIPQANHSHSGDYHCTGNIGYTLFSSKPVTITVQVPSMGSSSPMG
Protocol: (§1) Analysis of interaction between obj ective antibody and the FcγR was carried out using Biacore T100 (GE Healthcare), Biacore T200, Biacore A100, and Biacore 4000. HBS-EP+ (GE Healthcare) was used as the running buffer, and the measurement temperature was set to 25° C. Chips produced by immobilizing the antigen peptide by the amine coupling method to a Series S sensor Chip CM5 (GE Healthcare), chips produced by allowing preliminarily biotinylated antigen peptides to interact with and immobilize onto a Series S Sensor Chip SA (certified) (GE Healthcare), chips produced by immobilizing Protein L (ACTIGEN, BioVision) to Series S Sencor Chip CM5 (GE Healthcare), or chips produced by immobilizing Protein A/G (Thermo Scientific) to Series S Sencor Chip CM5 (GE Healthcare) were used. Antibodies of interest were captured onto these chips, and allowed to interact to each FcγR diluted with running buffer. To regenerate and repeatedly use the chip, the antibodies captured onto the chip were washed off by reacting 10 mM glycine-HCl, pH 1.5.

FcgRIIa H [2] = biological target: T2, FcgRIIa H (human, UniProt P12318 34-217); experiment: as above
T2 construct: extracellular domain; also called FcγRIIa H; FcγRIIa type H; not shown: His tag attached to the C terminus
T2 sequence (looked up): T1 sequence (looked up) with R134H
Protocol: as §1

FcgRIIIa F [3] = biological target: T3, FcgRIIIa F (human, UniProt P08637 17-208); experiment: as above
T3 construct: extracellular domain; also called FcγRIIIa F; not shown: His tag attached to the C terminus
T3 sequence (P08637 17-208): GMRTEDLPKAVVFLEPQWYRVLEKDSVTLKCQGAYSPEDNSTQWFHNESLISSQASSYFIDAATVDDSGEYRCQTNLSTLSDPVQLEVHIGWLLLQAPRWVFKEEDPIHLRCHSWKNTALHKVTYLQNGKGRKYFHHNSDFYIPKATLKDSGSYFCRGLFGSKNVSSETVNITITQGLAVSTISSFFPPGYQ
Protocol: as §1

FcgRIIIa V [4] = biological target: T4, FcgRIIIa V (human, UniProt P08637 17-208); experiment: as above
T4 construct: extracellular domain; also called FcγRIIIa V; not shown: His tag attached to the C terminus
T4 sequence (P08637 17-208 F176V limits assumed): as the sequence (P08637 17-208) above, with F160V counted along it
Protocol: as §1

[5] = biological target: T5, FcgRIIa R type extracellular domain, C-terminal His tag (human, UniProt P12318 34-217); experiment: SPR (Biacore), antibody captured on chip, FcgR extracellular domain as analyte, 25 C, 1:1 Langmuir fit; experiment #3
T5 construct: extracellular domain; also called FcγRIIa R; 2aR; not shown: His tag attached to the C terminus
T5 sequence (looked up): T1 sequence (looked up)
Protocol: (§2) Antibodies of interest were analyzed for the interaction to FcgR according to the method described in Reference Example 8.
as §1

[6] = biological target: T6, FcgRIIa H type extracellular domain, C-terminal His tag (human, UniProt P12318 34-217); experiment: as above
T6 construct: extracellular domain; also called FcγRIIa H; 2aH; not shown: His tag attached to the C terminus
T6 sequence (looked up): T1 sequence (looked up) with R134H
Protocol: as §2, §1

[7] = biological target: T7, FcgRIIb extracellular domain, C-terminal His tag (human, UniProt P31994 43-217); experiment: as above
T7 construct: extracellular domain; also called FcγRIIb; 2b; not shown: His tag attached to the C terminus
T7 sequence (looked up): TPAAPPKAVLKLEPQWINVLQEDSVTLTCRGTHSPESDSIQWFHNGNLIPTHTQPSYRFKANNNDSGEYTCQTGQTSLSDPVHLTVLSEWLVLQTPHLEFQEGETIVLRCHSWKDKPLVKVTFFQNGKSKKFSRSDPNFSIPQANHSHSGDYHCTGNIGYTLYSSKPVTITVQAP
Protocol: as §2, §1

[8] = biological target: T8, FcgRIIIa F type extracellular domain, C-terminal His tag (human, UniProt P08637 17-208); experiment: as above
T8 construct: extracellular domain; also called FcγRIIIa F; 3aF; not shown: His tag attached to the C terminus
T8 sequence (P08637 17-208): as the sequence (P08637 17-208) above
Protocol: as §2, §1

[9] = biological target: T9, FcgRIIIa V type extracellular domain, C-terminal His tag (human, UniProt P08637 17-208); experiment: as above
T9 construct: extracellular domain; also called FcγRIIIa V; 3aV; not shown: His tag attached to the C terminus
T9 sequence (P08637 17-208 F176V limits assumed): as the sequence (P08637 17-208) above, with F160V counted along it
Protocol: as §2, §1

[10] = biological target: T10, FcgRI extracellular domain, C-terminal His tag (human, UniProt P12314 16-292); experiment: as above
T10 construct: extracellular domain; also called FcγRIa; FcgRIa; not shown: His tag attached to the C terminus
T10 sequence (P12314 16-292): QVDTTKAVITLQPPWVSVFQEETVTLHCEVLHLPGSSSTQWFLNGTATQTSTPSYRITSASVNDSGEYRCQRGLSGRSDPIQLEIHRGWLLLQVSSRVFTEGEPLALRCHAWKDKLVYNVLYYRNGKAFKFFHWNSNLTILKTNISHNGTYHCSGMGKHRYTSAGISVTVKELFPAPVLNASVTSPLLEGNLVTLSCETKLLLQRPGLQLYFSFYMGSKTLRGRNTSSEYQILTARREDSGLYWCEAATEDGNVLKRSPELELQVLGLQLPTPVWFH
Protocol: as §2, §1

FcgRIa = biological target: T11, FcgRIa (human, UniProt P12314 16-292); experiment: SPR (Biacore), antibody captured on chip, FcgR extracellular domain as analyte
T11 construct: extracellular domain; Expressed in FreeStyle293 cells and purified; used as analyte in Biacore; also called FcγRIa; FcγRI; not shown: His tag attached to the C terminus
T11 sequence (P12314 16-292): as above
Protocol: (§3) H240-Kn113 (SEQ ID NO: 92) resulting from introduction of Y234E and Y235N into H240-Kn072, H240-Kn115 (SEQ ID NO: 93) resulting from introduction of S239M into H240-Kn072, and H240-Kn125 (SEQ ID NO: 94) resulting from introduction of Y235Q and S239M into H240-Kn072 were prepared according to the method described in Reference Example 1.
as §1

FcgRIIa R [11] = biological target: T1, FcgRIIa R; experiment: as above; remark: listed apart in the source
Protocol: as §3, §1

FcgRIIa H [12] = biological target: T2, FcgRIIa H; experiment: as above; remark: listed apart in the source
Protocol: as §3, §1

FcgRIIb = biological target: T12, FcgRIIb (human, UniProt P31994 43-217); experiment: as above
T12 construct: extracellular domain; Expressed in FreeStyle293 cells and purified; used as analyte in Biacore; also called FcγRIIb; CD32B; not shown: His tag attached to the C terminus
T12 sequence (looked up): T7 sequence (looked up)
Protocol: as §3, §1

FcgRIIIa F [13] = biological target: T3, FcgRIIIa F; experiment: as above; remark: listed apart in the source
Protocol: as §3, §1

FcgRIIIa V [14] = biological target: T4, FcgRIIIa V; experiment: as above; remark: listed apart in the source
Protocol: as §3, §1

Binder | Kd (FcgRIIa R [1]) [nM] | Kd (FcgRIIa H [2]) [nM] | Kd (FcgRIIIa F [3]) [nM] | Kd (FcgRIIIa V [4]) [nM] | Kd [5] [nM] | Kd [6] [nM] | Kd [7] [nM] | Kd [8] [nM] | Kd [9] [nM] | Kd [10] [nM] | Kd (FcgRIa) [nM] | Kd (FcgRIIa R [11]) [nM] | Kd (FcgRIIa H [12]) [nM] | Kd (FcgRIIb) [µM] | Kd (FcgRIIIa F [13]) [nM] | Kd (FcgRIIIa V [14]) [nM]
B1 | 950 | 2100 | 960 | 340 |  |  |  |  |  |  |  |  |  |  |  | 
B2 |  |  |  |  | 280 | 92 | 1300 | 4.4 | 1.7 | 0.069 |  |  |  |  |  | 
B3 |  |  |  |  | 250 | 77 | 1300 | 3.5 | 1.3 | 0.038 |  |  |  |  |  | 
B4 |  |  |  |  |  |  |  |  |  |  | 0.21 | 600 | 350 | 5 | 1.7 | 0.62
B5 |  |  |  |  |  |  |  |  |  |  | 0.24 | 380 | 190 | 4.2 | 1.2 | 0.37
